Where a chain is given by its changes, count along the chain named. In names and notes the source's numbering stands. Bridge positions count the residues as written; N and C are the ends. * marks the point of attachment. Biotin = O=C1N[C@H]2[C@H](CS[C@H]2CCCCC(=O)*)N1
T1: recombinant human LRP1 cluster II (R&D Systems, amino acids 786-1165, with C-terminal Fc tag) (human, UniProt Q07954 786-1165)
T1 construct: range 786-1165; Bought from R&D Systems; coated on plates; also called LRP1-C2; not shown: C-terminal Fc tag of the bought protein
T1 sequence (looked up): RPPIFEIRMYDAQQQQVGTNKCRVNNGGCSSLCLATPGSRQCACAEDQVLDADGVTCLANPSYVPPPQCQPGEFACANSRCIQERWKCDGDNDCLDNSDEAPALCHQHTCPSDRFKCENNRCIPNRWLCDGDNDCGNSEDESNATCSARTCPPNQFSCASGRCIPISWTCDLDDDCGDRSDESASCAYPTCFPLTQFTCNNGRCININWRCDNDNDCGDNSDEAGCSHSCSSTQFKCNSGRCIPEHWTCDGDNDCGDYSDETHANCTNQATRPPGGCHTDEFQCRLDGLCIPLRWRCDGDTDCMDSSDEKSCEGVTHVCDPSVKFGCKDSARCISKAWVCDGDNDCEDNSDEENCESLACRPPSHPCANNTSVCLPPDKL

B1: MegaRAP1 d3 K251E, E270K (ligand)
chain: GLDRLRRVSHQGYTTEAKFEEPRVIDLWDLAQSANLTDKELEAFREELKYFEAKIEAHNHYQKQLEIAHEKLRHAESVGDGERVSRSREKHALLEGRTKELGYTVKKHLQDLSGRISRARHNEL
notes: also called MegaRAP1 K251E, E270K
B2: RAP d3 E251K, K256A, K270E (ligand)
chain: B1 chain with T14S, K18E, Y50H, E52K, K71E
notes: also called RAP E251K, K256A, K270E
B3: MegaRAP1 d3 E270K (ligand)
chain: B1 chain with E52K
notes: also called MegaRAP1 E270K
B4: MegaRAP1 d3 A256K, E270K (ligand)
chain: B1 chain with E52K, A57K
notes: also called MegaRAP1 A256K, E270K
B5: MegaRAP1 d3 (ligand)
chain: B1 chain with E52K, K71E
notes: also called RAPv2A d3; RAP v2
B6: MegaRAP1 d3 T213S (ligand)
chain: B1 chain with T14S, E52K, K71E
notes: also called MegaRAP1 T213S
B7: MegaRAP1 d3 K217E (ligand)
chain: B1 chain with K18E, E52K, K71E
notes: also called MegaRAP1 K217E
B8: LRP1 CR3-5 (receptor)
chain: not shown
notes: domain: CR3-5; also called LRP1 CR domains
B9: RAP d3 E251K (ligand)
chain: B1 chain with T14S, K18E, Y50H, E52K, A57K
notes: also called RAP E251K
B10: RAP d3 E217K (ligand)
chain: B1 chain with T14S, Y50H, A57K
notes: also called RAP E217K
B11: RAP d3 H249Y (ligand)
chain: B1 chain with T14S, K18E, A57K
notes: also called RAP H249Y
B12: mRAP-14c (peptide)
peptide: Biotin-GGSGGCEAKIEKHNHYQKQLEIAHEKLRHAESVGDGERVSRSREKHALLEGRTKELGYTVKKHGC
modifications: disulfide 6-65
notes: Cysteines at both ends are meant for cyclization by a disulfide bond
B13: mRAP-8c (peptide)
peptide: GGSGGCGKHFEAKIEKHNHYQKQLEIAHEKLRHAESVGDGERVSRSREKHALLEGRTKELGYTVKKHLQDGC
modifications: N-terminal biotin (biotin-GGSGG)
notes: as for B12
B14: mature RAP (full-length receptor-associated protein) (ligand)
chain: YSREKNQPKPSPKRESGEEFRMEKLNQLWEKAQRLHLPPVRLAELHADLKIQERDELAWKKLKLDGLDEDGEKEARLIRNLNVILAKYGLDGKKDARQVTSNSLSGTQEDGLDDPRLEKLWHKAKTSGKFSGEELDKLWREFLHHKEKVHEYNVLLETLSRTEEIHENVISPSDLSDIKGSVLHSRHTELKEKLRSINQGLDRLRRVSHQGYSTEAEFEEPRVIDLWDLAQSANLTDKELEAFREELKHFEAKIEKHNHYQKQLEIAHEKLRHAESVGDGERVSRSREKHALLEGRTKELGYTVKKHLQDLSGRISRARHNEL
notes: also called full-length RAP
B15: RAP d3 (ligand)
chain: B1 chain with T14S, K18E, Y50H, A57K
notes: also called recombinant RAP d3
B16: MegaRAP1 d3 A256K (ligand)
chain: B1 chain with E52K, A57K, K71E
notes: also called MegaRAP1 A256K
B17: RAP d3 K270E (ligand)
chain: B1 chain with T14S, K18E, Y50H, A57K, K71E
notes: also called RAP K270E
B18: MegaRAP1 d3 Y249H (ligand)
chain: B1 chain with Y50H, E52K, K71E
notes: also called MegaRAP1 Y249H
B19: MegaRAP1 d3 K251E (ligand)
chain: B1 chain with K71E
notes: also called MegaRAP1 K251E
B20: RAP d3 E251K, K270E (ligand)
chain: B1 chain with T14S, K18E, Y50H, E52K, A57K, K71E
notes: also called RAP E251K, K270E
B21: RAP d3 K256A, K270E (ligand)
chain: B1 chain with T14S, K18E, Y50H, K71E
notes: also called RAP K256A, K270E
B22: LRP2 CR89 (receptor)
chain: not shown
notes: domain: CR89

Biological target: B22
Assay: solid-phase binding (OD), single-site non-linear regression

| Kd | Binder |
| --- | --- |
| 153 nM | B1 |
| 114 nM | B2 |
| 8 nM | B3 |
| 72 nM | B4 |
| 38 nM | B5 |
| 19 nM | B6 |
| 25 nM | B7 |

Biological target: B15
Assay: as above

| Kd | Binder |
| --- | --- |
| 16 nM | B8 |

Biological target: B8
Assay: as above

| Kd | Binder |
| --- | --- |
| 7 nM | B9 |
| 9 nM | B10 |
| 28 nM | B11 |
| 114 nM | B3 |
| 4 nM | B4 |

Biological target: T1, recombinant human LRP1 cluster II (R&D …)
Assay: solid phase binding assay, LRP1 cluster II-Fc coated on plate
Method: (§1) Control wells contained no added inhibitor. Wells were washed with TBS supplemented with 5 mM CaCl₂ and 0.05% Tween-20. […] Excess HRP conjugate was removed and wells washed. Color was developed using TMB reagents (BioRad, Hercules, Calif.).

| Kd | Binder |
| --- | --- |
| ~21 nM | B12 |
| ~4 nM | B13 |

Biological target: T1, recombinant human LRP1 cluster II (R&D …)
Assay: solid phase competition, EC50 against that of the mRAPc monomer
Method: as §1

| relative to monomer | Binder |
| --- | --- |
| 36 fold | B14 |

Biological target: B22
Assay: solid-phase binding, OD at highest concentration against highest OD of all ligands

| % max (percent of maximum binding) | Binder |
| --- | --- |
| 5% | B15 |
| 5% | B9 |
| 5% | B10 |
| 16% | B1 |
| 2% | B11 |
| 40% | B2 |
| 2% | B16 |
| 100% | B3 |
| 73% | B4 |
| 2% | B17 |
| 35% | B18 |
| 88% | B5 |
| 94% | B6 |
| 11% | B19 |
| 88% | B7 |
| 2% | B20 |
| 3% | B21 |

Biological target: B8
Assay: as above

| % max (percent of maximum binding) | Binder |
| --- | --- |
| 76% | B15 |
| 100% | B9 |
| 91% | B10 |
| 16% | B1 |
| 90% | B11 |
| 2% | B2 |
| 6% | B16 |
| 85% | B3 |
| 93% | B4 |
| 4% | B17 |
| 2% | B18 |
| 4% | B5 |
| 2% | B6 |
| 2% | B19 |
| 2% | B7 |
| 4% | B20 |
| 2% | B21 |

Biological target: T1, recombinant human LRP1 cluster II (R&D …)
Assay: solid phase competition, inhibition of 2 nM RAP d3 binding to immobilized LRP1-C2
Method: as §1

| EC50 | Binder |
| --- | --- |
| 0.8 nM | B14 |

Biological target: B8
Assay: binding titration on LRP1 CR3-5, absorbance against nM of ligand

| binding result | Binder |
| --- | --- |
| no binding (tested: 100 nM) | B2 |
| no binding (tested: 100 nM) | B16 |
| no binding (tested: 100 nM) | B17 |
| no binding (tested: 100 nM) | B18 |
| no binding (tested: 100 nM) | B5 |
| no binding (tested: 100 nM) | B6 |
| no binding (tested: 100 nM) | B19 |
| no binding (tested: 100 nM) | B7 |
| no binding (tested: 100 nM) | B20 |
| no binding (tested: 100 nM) | B21 |

Biological target: T1, recombinant human LRP1 cluster II (R&D …)
Assay: solid phase competition, EC50 against that of the mRAPc monomer
Remark: another data set of the same source
Method: as §1

| relative to monomer | Binder |
| --- | --- |
| 40 fold | B14 |

Biological target: B22
Assay: binding titration on LRP2 CR89, absorbance against nM of ligand
Chain of LRP2 CR89 (P98164 1025-1102 limits assumed): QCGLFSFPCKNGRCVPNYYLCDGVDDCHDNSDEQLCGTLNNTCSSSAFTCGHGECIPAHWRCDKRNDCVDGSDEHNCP

| binding result | Binder |
| --- | --- |
| no binding (tested: 100 nM) | B9 |
| no binding (tested: 100 nM) | B10 |
| no binding (tested: 100 nM) | B11 |
| no binding (tested: 100 nM) | B16 |
| no binding (tested: 100 nM) | B17 |
| no binding (tested: 100 nM) | B21 |

Biological target: B15
Assay: as above

| binding result | Binder |
| --- | --- |
| no binding (tested: 100 nM) | B22 |

Biological target: T1, recombinant human LRP1 cluster II (R&D …)
Assay: solid phase competition, inhibitor preincubated with immobilized LRP1-C2, then 2 nM RAP d3
Method: as §1

| EC50 | Binder |
| --- | --- |
| 0.5 nM | B14 |
